We go through 1 substance from publication PMC11550248.

The target in the experiment is voltage-dependent anion-selective channel 1 (VDAC1), purified from rat liver mitochondria (rat) (UniProt Q9Z2L0). Nature of the experiment: MST; VDAC1 (138 nM) or MAVS (105 nM) fluorescently labeled and kept constant, tested protein at different concentrations; 20mM Tris-HCl, 200mM NaCl, pH 8; 30 min at 37°C in the dark; Monolith NT.115, LED 20%, IR laser 80%.

As to “SARS-CoV-2 small envelope E-protein, purified (from UniProt P0DTC4 1-75) (natural protein)”, the C50 (half maximal binding) was 1100 nM.
